Data as given in patent US20040009174A1.
“And” between values parts separate entries of the source, which are not always exact repeats. Equal values may be shown once.

Key:
human CD40 (human) = human CD40 (human) (UniProt P25942); test: cell-based or functional assay
[1] = biological target: human OX40 ligand (OX40L) (human) (UniProt P23510); test: cell-based or functional assay
Chain of UniProt P23510 (P23510 whole entry): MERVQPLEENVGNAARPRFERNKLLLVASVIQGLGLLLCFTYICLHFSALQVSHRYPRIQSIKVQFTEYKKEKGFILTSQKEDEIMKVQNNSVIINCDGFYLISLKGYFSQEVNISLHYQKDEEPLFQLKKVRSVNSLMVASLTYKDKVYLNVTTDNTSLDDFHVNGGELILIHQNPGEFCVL

Chain of UniProt P25942 (P25942 21-277): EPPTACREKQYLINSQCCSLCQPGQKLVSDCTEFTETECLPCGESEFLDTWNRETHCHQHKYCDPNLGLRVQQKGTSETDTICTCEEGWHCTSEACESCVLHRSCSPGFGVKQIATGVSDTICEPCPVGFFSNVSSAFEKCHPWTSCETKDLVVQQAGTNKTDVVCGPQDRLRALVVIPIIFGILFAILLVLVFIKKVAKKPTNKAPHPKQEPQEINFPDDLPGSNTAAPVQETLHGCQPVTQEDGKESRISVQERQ

recombinant human soluble CD40L (from UniProt P29965 116-261) (ligand)
IL-6 production by HASM cells (ELISA), 1 ug/ml (human CD40 (human)): 2 fold and 3 fold

B1: Soluble human recombinant OX40 [CD134]:Fc (Fc fusion, UniProt P43489 29-220, looked up, not shown: a dimerising Fc or GST)
chain: LHCVGDTYPSNDRCCHECRPGNGMVSRCSRSQNTVCRPCGPGFYNDVVSSKPCKPCTWCNLRSGSERKQLCTATQDTVCRCRAGTQPLDSYKPGVDCAPCPPGHFSPGDNQACKPWTNCTLAGKHTLQPASNSSDAICEDRDPPATQPQETQGPPARPITVQPTEAWPRTSQGPSTRPVEVPGGRAVAAILG
IL-6 production by HASM cells (ELISA), 1 ug/ml [1]: 2 fold and 3 fold | PKCβ2 in membrane fraction (Western blot), HASM cells [1]: 3 fold
